Assay results taken from PMC9482650, “Quantitative fragmentomics allow affinity mapping of interactomes” (Nature Communications, 2022).

Experiments:
Assay in all cases: holdup assay
Parameters in all cases: key: below the threshold = too weak to quantify, mostly under pKd 3.1 to 4
Conditions in all cases: plain residues with an end cap or a label only (N-terminal biotin on a linker: ado-ado)
[1] = target: T1, DVL3, Q92997
T1 sequence (Q92997 244-331, limits assumed, looked up): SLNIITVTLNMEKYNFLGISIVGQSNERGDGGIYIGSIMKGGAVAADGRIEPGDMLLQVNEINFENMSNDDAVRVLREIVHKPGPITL

[2] = target: Inadl_1, Q8NI35
Inadl_1, Q8NI35, sequence (Q8NI35 113-229): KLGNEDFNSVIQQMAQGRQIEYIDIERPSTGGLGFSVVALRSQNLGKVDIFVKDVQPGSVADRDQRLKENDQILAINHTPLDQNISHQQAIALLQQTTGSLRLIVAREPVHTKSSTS

[3] = target: T2, DFNB31_1, Q9P202
T2 sequence (Q9P202 135-233, limits assumed, looked up): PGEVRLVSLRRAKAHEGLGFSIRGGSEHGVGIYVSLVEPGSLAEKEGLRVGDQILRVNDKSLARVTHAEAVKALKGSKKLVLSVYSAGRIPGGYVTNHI

[4] = target: GORASP1, Q9BQQ3
GORASP1, Q9BQQ3, sequence (Q9BQQ3 1-208): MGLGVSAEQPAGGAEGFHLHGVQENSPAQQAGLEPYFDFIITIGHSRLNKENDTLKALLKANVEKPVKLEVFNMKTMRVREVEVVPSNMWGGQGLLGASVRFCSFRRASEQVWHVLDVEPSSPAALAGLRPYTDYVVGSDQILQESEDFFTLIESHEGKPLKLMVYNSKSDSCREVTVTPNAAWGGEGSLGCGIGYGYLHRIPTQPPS

[5] = target: T3, LNX2_2, Q8N448
T3 sequence (Q8N448 334-432, limits assumed, looked up): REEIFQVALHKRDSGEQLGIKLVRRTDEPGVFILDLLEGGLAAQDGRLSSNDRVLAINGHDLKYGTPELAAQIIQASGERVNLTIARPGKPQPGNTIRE

[6] = target: MAGI1_1, Q96QZ7
MAGI1_1, Q96QZ7, sequence (Q96QZ7 1-106): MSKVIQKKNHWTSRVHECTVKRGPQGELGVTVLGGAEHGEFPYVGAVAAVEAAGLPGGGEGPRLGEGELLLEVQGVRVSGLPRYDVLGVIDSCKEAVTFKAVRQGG

[7] = target: T4, LIN7A, O14910
T4 sequence (O14910 103-200, limits assumed, looked up): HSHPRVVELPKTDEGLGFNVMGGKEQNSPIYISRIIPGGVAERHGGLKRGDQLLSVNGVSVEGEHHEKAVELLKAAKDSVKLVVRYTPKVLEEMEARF

[8] = target: T5, APBA3_1, O96018
T5 sequence (O96018 389-490, limits assumed, looked up): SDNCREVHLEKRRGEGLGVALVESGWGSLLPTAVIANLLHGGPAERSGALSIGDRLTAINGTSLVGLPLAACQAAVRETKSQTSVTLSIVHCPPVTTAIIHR

[9] = target: SCRIB_3, Q14160
SCRIB_3, Q14160, sequence (Q14160 999-1103): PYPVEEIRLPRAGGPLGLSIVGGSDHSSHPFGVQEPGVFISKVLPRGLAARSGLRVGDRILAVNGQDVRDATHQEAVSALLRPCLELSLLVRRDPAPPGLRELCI

[10] = target: MAGI2_6, Q86UL8
MAGI2_6, Q86UL8, sequence (Q86UL8 1141-1229): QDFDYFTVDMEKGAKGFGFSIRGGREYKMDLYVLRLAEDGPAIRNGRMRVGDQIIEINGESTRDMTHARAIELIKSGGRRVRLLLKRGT

[11] = target: T6, MPDZ_12, O75970
T6 sequence (O75970 1857-1958, limits assumed, looked up): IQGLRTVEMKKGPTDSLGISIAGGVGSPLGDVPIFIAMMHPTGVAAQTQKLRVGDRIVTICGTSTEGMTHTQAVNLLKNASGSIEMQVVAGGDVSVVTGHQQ

[12] = target: GRIP2_3, Q9C0E4
GRIP2_3, Q9C0E4, sequence (Q9C0E4 238-339): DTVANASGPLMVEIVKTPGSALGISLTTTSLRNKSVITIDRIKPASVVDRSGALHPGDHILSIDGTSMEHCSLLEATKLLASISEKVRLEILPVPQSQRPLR

[13] = target: T7, PDZRN3_1, Q9UPQ7
T7 sequence (Q9UPQ7 244-349, limits assumed, looked up): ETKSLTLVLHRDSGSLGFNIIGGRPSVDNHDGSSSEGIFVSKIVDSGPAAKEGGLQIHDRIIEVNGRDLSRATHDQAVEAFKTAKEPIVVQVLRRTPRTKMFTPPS

[14] = target: Inadl_4, Q8NI35
Inadl_4, Q8NI35, sequence (Q8NI35 547-651): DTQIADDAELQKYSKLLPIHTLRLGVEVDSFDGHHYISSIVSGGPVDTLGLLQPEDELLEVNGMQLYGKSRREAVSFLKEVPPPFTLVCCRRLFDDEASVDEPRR

[15] = target: T8, GRIP1_2, Q9Y3R0
T8 sequence (Q9Y3R0 145-248, limits assumed, looked up): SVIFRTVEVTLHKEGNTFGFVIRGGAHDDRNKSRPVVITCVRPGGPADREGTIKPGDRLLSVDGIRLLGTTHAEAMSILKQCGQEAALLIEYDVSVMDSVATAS

[16] = target: Inadl_9, Q8NI35
Inadl_9, Q8NI35, sequence (Q8NI35 1530-1615): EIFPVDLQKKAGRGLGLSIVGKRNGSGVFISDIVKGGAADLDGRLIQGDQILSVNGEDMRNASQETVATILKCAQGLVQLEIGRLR

[17] = target: LAP2, Q96RT1
LAP2, Q96RT1, sequence (Q96RT1 other isoform, or with tags, fused parts or gaps): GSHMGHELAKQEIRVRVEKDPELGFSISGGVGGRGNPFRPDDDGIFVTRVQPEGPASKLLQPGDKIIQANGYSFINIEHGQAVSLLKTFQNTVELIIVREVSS

[18] = target: T9, CARD11, Q9BXL7
T9 sequence (Q9BXL7 662-765, limits assumed, looked up): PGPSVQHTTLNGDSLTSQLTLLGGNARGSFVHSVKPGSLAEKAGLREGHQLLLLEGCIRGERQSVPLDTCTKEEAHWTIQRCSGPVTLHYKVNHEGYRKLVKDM

[19] = target: TJP2_1, Q9UDY2
TJP2_1, Q9UDY2, sequence (Q9UDY2 24-128): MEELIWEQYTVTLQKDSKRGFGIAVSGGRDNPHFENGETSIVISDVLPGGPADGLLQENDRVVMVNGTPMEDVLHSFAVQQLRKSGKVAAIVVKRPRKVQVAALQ

[20] = target: GRIP2_7, Q9C0E4
GRIP2_7, Q9C0E4, sequence (Q9C0E4 934-1023): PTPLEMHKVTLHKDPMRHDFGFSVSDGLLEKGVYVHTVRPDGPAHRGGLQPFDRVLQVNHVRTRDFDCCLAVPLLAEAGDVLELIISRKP

[21] = target: NHERF4_4, Q86UT5
NHERF4_4, Q86UT5, sequence (Q86UT5 464-550): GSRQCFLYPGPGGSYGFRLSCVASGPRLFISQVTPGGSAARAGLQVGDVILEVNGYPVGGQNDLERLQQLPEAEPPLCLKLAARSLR

[22] = target: DLG2_2, Q15700
DLG2_2, Q15700, sequence (Q15700 189-283): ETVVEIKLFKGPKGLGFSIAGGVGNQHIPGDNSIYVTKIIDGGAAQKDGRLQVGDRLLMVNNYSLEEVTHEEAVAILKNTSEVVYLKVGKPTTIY

[23] = target: GORASP2, Q9H8Y8
[24] = target: T10, HTRA3, P83110
T10 sequence (P83110 354-453, limits assumed, looked up): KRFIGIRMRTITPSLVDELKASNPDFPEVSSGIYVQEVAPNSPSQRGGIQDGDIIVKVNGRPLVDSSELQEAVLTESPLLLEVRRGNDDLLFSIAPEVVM

[25] = target: T11, PDZD7_3, Q9H5P4
T11 sequence (Q9H5P4 857-944, limits assumed, looked up): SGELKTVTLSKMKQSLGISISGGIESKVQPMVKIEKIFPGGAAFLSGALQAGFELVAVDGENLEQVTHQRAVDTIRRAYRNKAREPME

[26] = target: GRIP2_6, Q9C0E4
GRIP2_6, Q9C0E4, sequence (Q9C0E4 648-740): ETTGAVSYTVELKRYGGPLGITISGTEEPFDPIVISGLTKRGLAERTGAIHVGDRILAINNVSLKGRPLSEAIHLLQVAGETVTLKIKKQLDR

[27] = target: MAGI2_5, Q86UL8
MAGI2_5, Q86UL8, sequence (Q86UL8 915-1017): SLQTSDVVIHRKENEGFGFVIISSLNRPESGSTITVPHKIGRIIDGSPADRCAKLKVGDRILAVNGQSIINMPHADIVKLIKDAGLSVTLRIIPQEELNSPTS

| Binder | pKd [1] | pKd [2] | pKd [3] | pKd [4] | pKd [5] | pKd [6] | pKd [7] | pKd [8] | pKd [9] | pKd [10] | pKd [11] | pKd [12] | pKd [13] | pKd [14] | pKd [15] | pKd [16] | pKd [17] | pKd [18] | pKd [19] | pKd [20] | also measured |
| --- | --- | --- | --- | --- | --- | --- | --- | --- | --- | --- | --- | --- | --- | --- | --- | --- | --- | --- | --- | --- | --- |
| EWTDERQSKV [GAB3, Q8WWW8] | below the threshold | below the threshold | 3.94 | below the threshold | below the threshold | below the threshold | below the threshold | below the threshold | below the threshold | 3.53 | below the threshold | below the threshold | 3.62 | below the threshold | below the threshold | 3.56 | 3.56 | below the threshold | below the threshold | below the threshold | pKd [21]: below the threshold; pKd [22]: 3.89; pKd [23]: below the threshold; pKd [24]: below the threshold; pKd [25]: 3.82; pKd [26]: below the threshold; pKd [27]: 3.95 |
| FTLPAESSEI [PLEKHG7, Q6ZR37] | below the threshold | below the threshold | 4.39 | below the threshold | below the threshold | below the threshold | below the threshold | below the threshold | 3.86 | below the threshold | below the threshold | below the threshold | below the threshold | below the threshold | below the threshold | below the threshold | below the threshold | below the threshold | below the threshold | below the threshold | pKd [21]: below the threshold; pKd [22]: below the threshold; pKd [23]: below the threshold; pKd [24]: below the threshold; pKd [25]: 3.97; pKd [26]: below the threshold; pKd [27]: below the threshold |
| HLRQQGSVEV [EPHB6, O15197] | below the threshold | below the threshold | below the threshold | below the threshold | 5.03 | below the threshold | below the threshold | below the threshold | below the threshold | below the threshold | below the threshold | below the threshold | below the threshold | below the threshold | below the threshold | 4.03 | below the threshold | below the threshold | below the threshold | below the threshold | pKd [21]: below the threshold; pKd [22]: below the threshold; pKd [23]: below the threshold; pKd [24]: 3.81; pKd [25]: below the threshold; pKd [26]: 3.93; pKd [27]: below the threshold |
| TGLWKSETTV [ADGRA2, Q96PE1] | below the threshold | below the threshold | 3.64 | 3.5 | 4.98 | 3.55 | 3.93 | below the threshold | 4.4 | 3.85 | below the threshold | below the threshold | 4.07 | below the threshold | below the threshold | 3.75 | 3.7 | below the threshold | below the threshold | below the threshold | pKd [21]: below the threshold; pKd [22]: 5.16; pKd [23]: 3.9; pKd [24]: below the threshold; pKd [25]: 4.65; pKd [26]: below the threshold; pKd [27]: 4.12 |
| ASGLDKRDYV [CLDN9, O95484] | below the threshold | below the threshold | below the threshold | below the threshold | 3.92 | below the threshold | below the threshold | below the threshold | below the threshold | below the threshold | below the threshold | below the threshold | below the threshold | below the threshold | below the threshold | 3.51 | below the threshold | below the threshold | below the threshold | below the threshold | pKd [21]: below the threshold; pKd [22]: below the threshold; pKd [23]: below the threshold; pKd [24]: 3.79; pKd [25]: below the threshold; pKd [26]: below the threshold; pKd [27]: below the threshold |
